± gives the half width of the 95% confidence interval.
Assays:
[1] = folding stability dG unfold from trypsin proteolysis; higher = more stable
Outline: (§1)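 How resistant each design was to proteolysis was captured as K50, inferred by Bayesian fitting of sequencing counts. Unfolding free energy was then derived relative to a sequence-predicted unfolded-state K50 and a shared folded-state K50, per protease or combined. Digestion used trypsin and chymotrypsin at 11 threefold-diluted concentrations plus a no-protease condition, on mini-proteins under 80 residues without cysteine in a PA-tagged cDNA display construct. Designs were kept only when AlphaFold2 dimer inter-PAE was above 15.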

[2] = folding stability dG unfold from chymotrypsin proteolysis; higher = more stable
Outline: as §1

[3] = folding stability dG unfold (combined trypsin and chymotrypsin); higher = more stable
Outline: as §1

SGATLFIGRFPGEGTLIAVAKLPNGKEIVISFGNYPEGIAGIAALARELDPRAEIKHIELVPPDSVPPEFSA [r9_137_TrMRF]
folding stability dG unfold [1]: 1.37 ± 0.038 kcal/mol
folding stability dG unfold [2]: 1.49 ± 0.11 kcal/mol
folding stability dG unfold [3]: 1.45 ± 0.11 kcal/mol

SAGMGSDVPVLTAVLSVLNPETGEEVTIEVPGRNDYGEGKLIRPVSPEDLLAAALAVADALLKDPSLKASAG [r5_426_TrMRF]
folding stability dG unfold [1]: 1.36 ± 0.036 kcal/mol
folding stability dG unfold [2]: 0.24 ± 0.22 kcal/mol
folding stability dG unfold [3]: 0.804 ± 0.11 kcal/mol

SAGGMTPEEKEEIAKKFAEELLKKLKEGDPNVKVETEVDPEKGVVKIKVINLNTKKPKTIEIPFSELASAGG [r13_354_TrMRF]
folding stability dG unfold [1]: 1.76 ± 0.052 kcal/mol
folding stability dG unfold [2]: 1.83 ± 0.034 kcal/mol
folding stability dG unfold [3]: 1.77 ± 0.1 kcal/mol

SAGGSAGGGNWERVEFTFTKRVYDPKNGKPMKDVMVEIDVYRDPNEGALEIEIEMPPGFDYIMISAGGSAGG [r6_206_TrROS]
folding stability dG unfold [1]: 2.79 ± 0.28 kcal/mol
folding stability dG unfold [2]: 4.23 ± 0.23 kcal/mol
folding stability dG unfold [3]: 3.93 ± 0.29 kcal/mol

SAGMTITIPAPPSLSPEEAVALAIERVKEEYPELLTPGSEVNIVVIREDPATGTSQTLTVTVPFPEGIFSAG [r5_916_JUSTAS]
folding stability dG unfold [1]: 1.98 ± 0.045 kcal/mol
folding stability dG unfold [2]: 1.57 ± 0.044 kcal/mol
folding stability dG unfold [3]: 1.79 ± 0.086 kcal/mol

SAGGMLILIKVKNKKYEIEINGKKIEVEEKDGYLIIKVSPEALEALKKIPNLENIEEIKIFPEEELKSAGGS [r8_493_TrROS_Hall]
folding stability dG unfold [1]: 2.07 ± 0.035 kcal/mol
folding stability dG unfold [2]: 2.57 ± 0.033 kcal/mol
folding stability dG unfold [3]: 2.32 ± 0.089 kcal/mol

SAGGSSESKTVTAPDGRVLEFTKSLDPTSSNSRYTLTVYAPESGEPLREAEFSSEEEAEKYIAEGLGSAGGS [r8_450_JUSTAS]
folding stability dG unfold [1]: -0.0113 ± 0.067 kcal/mol
folding stability dG unfold [2]: 0.487 ± 0.072 kcal/mol
folding stability dG unfold [3]: 0.331 ± 0.068 kcal/mol

EKKTLTVLIEVPPEKLEEALARALELAKALPPGQKLEIEIVNEDGTVVRVTVTVDENGEIHIDVEVLPRPPS [r1_350_TrROS_Hall]
folding stability dG unfold [1]: 1.76 ± 0.073 kcal/mol
folding stability dG unfold [2]: 2.36 ± 0.16 kcal/mol
folding stability dG unfold [3]: 2.23 ± 0.16 kcal/mol

SAGGSAGGSAGGSKKEKYYLVTRIEVEVNGKKYPLGSKLPKNLPPGAKIKIETRIVKLDSAGGSAGGSAGGS [r4_436_TrROS_Hall]
folding stability dG unfold [1]: 2.35 ± 0.15 kcal/mol
folding stability dG unfold [2]: 1.58 ± 0.071 kcal/mol
folding stability dG unfold [3]: 1.83 ± 0.25 kcal/mol

SAGGSAGGSSPITIPIPLSELSEETLKKIAEENPEGETPIKIIKPDGTPVTIVVKPGGEIIGASAGGSAGGS [r12_1054_JUSTAS]
folding stability dG unfold [1]: 0.728 ± 0.046 kcal/mol
folding stability dG unfold [2]: 1.09 ± 0.068 kcal/mol
folding stability dG unfold [3]: 1.01 ± 0.075 kcal/mol

SAGMVATLYDPNLPPVSVGITETVTVPHPEGFTVTVTLSSDGTATVTPSDGSSTTLPDASEVRVTATPASAG [r5_869_JUSTAS]
folding stability dG unfold [1]: 1.31 ± 0.035 kcal/mol
folding stability dG unfold [2]: 0.921 ± 0.021 kcal/mol
folding stability dG unfold [3]: 1.1 ± 0.044 kcal/mol

SAGKPKKKKRTITIPIEHNPNNGNFTIKIRWPGRPVTVPFPGDDPEEMLDNMLNELENRLGWPIDEVEISAG [r5_251_TrROS]
folding stability dG unfold [1]: 0.932 ± 0.069 kcal/mol
folding stability dG unfold [2]: -0.116 ± 0.27 kcal/mol
folding stability dG unfold [3]: 0.429 ± 0.23 kcal/mol

SAGGSEEEIKKKIEEIAKKRGTKIKSITIKKLPDGSLLATVTLEDNPNTTIEFKVEKNKVEITKINKSAGGS [r8_432_JUSTAS]
folding stability dG unfold [1]: 1.73 ± 0.068 kcal/mol
folding stability dG unfold [2]: 2.93 ± 0.051 kcal/mol
folding stability dG unfold [3]: 2.61 ± 0.066 kcal/mol

SAGNIKIKEVEINDNTLTISYRMPGSGMWVKASIQADKGAIKIKSEYYPPKGKPIGEEEFTVPLDELKLSAG [r5_308_TrROS]
folding stability dG unfold [1]: 0.979 ± 0.042 kcal/mol
folding stability dG unfold [2]: 1.74 ± 0.31 kcal/mol
folding stability dG unfold [3]: 1.45 ± 0.28 kcal/mol

SAGGMLEVTEEPLELGDRPVTRTTITLPDGTVVTVTTEAGTGAMTVTYPDGTTKTVTSEEDALAALLSAGGS [r8_168_JUSTAS]
folding stability dG unfold [1]: 2.66 ± 0.11 kcal/mol
folding stability dG unfold [2]: 1.19 ± 0.051 kcal/mol
folding stability dG unfold [3]: 2.02 ± 0.094 kcal/mol

SAGGSAGGSAKAKVIKTEEFELPNGVRIRIEYIEVDGKLIEKVEIEIKAESEEQKKALEKASAGGSAGGSAG [r3_158_TrROS_Hall]
folding stability dG unfold [1]: 1.29 ± 0.052 kcal/mol
folding stability dG unfold [2]: 1.82 ± 0.15 kcal/mol
folding stability dG unfold [3]: 1.71 ± 0.17 kcal/mol

SAGDSVVIPFRLPPENLSPEELLEWIIDEVKEAAKAGLPHKVTIQVPYPGKPWYITIDPKNGEIEIVPSAGG [r19_204_TrROS]
folding stability dG unfold [1]: 1.04 ± 0.088 kcal/mol
folding stability dG unfold [2]: 1.66 ± 0.085 kcal/mol
folding stability dG unfold [3]: 1.52 ± 0.15 kcal/mol

SAMKTEVIEFENFTIVVEELPDGSKKIIILFENPEKAKEALEKNPWIKEFIAEAEKEGYDVELAVVEPESAG [r14_873_TrMRF]
folding stability dG unfold [1]: 3.21 ± 0.12 kcal/mol
folding stability dG unfold [2]: 3.31 ± 0.042 kcal/mol
folding stability dG unfold [3]: 3.21 ± 0.085 kcal/mol

SAGPLTVTVEGDTLTVTVPLTDVPADATVRVTVTVGDKTEEYTVPPSESITVTVPSSAVEVTVERLPPASAG [r5_867_JUSTAS]
folding stability dG unfold [1]: 2.09 ± 0.085 kcal/mol
folding stability dG unfold [2]: 2.44 ± 0.082 kcal/mol
folding stability dG unfold [3]: 2.36 ± 0.12 kcal/mol

SAGMEATIEIVGHPGDKEAIAVLRPEDKTVVIYKNKDGSYTVEVFEPNPARLIERKELPLEEAIKEALSAGG [r19_188_TrMRF]
folding stability dG unfold [1]: -0.343 ± 0.12 kcal/mol
folding stability dG unfold [2]: 1.45 ± 0.064 kcal/mol
folding stability dG unfold [3]: 0.987 ± 0.13 kcal/mol

SAGGSAMPVEFPSEGVVEAVNPKTGKVYLIRYETGDTKTRFVIFEPGTGEVRVIDEDTTFEEAVEDSAGGSA [r15_234_TrMRF]
folding stability dG unfold [1]: 0.802 ± 0.036 kcal/mol
folding stability dG unfold [2]: 0.382 ± 0.16 kcal/mol
folding stability dG unfold [3]: 0.674 ± 0.088 kcal/mol

Reference: the supplement of paper PMC12764529
